Measurements as given in patent US20230346938A1 (Memorial Sloan Kettering, published 2023).
Residue numbers refer to the chain shown, from its start.

T1: CD19 endogenously expressed on Raji and NALM-6 cells (human, UniProt P15391 20-556)
T1 construct: whole, on cells; also called CD19 on NALM-6 cells; CD19 on Raji cells
T1 sequence (looked up): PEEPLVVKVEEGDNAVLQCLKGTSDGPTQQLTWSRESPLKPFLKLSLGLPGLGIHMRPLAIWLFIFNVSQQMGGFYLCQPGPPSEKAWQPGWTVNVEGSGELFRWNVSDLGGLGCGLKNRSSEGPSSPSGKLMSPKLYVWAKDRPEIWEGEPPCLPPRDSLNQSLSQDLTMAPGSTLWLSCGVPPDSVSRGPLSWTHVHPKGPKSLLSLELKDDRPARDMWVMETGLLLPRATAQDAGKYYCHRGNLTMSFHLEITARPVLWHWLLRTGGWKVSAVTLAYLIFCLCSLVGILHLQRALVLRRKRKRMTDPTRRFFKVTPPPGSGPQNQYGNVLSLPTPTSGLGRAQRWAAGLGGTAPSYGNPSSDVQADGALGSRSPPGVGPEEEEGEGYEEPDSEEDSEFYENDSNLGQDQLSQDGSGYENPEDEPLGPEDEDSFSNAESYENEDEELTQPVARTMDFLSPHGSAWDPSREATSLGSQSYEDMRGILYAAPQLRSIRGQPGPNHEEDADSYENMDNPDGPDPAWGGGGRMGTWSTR

T2: soluble CD19-HSA fusion protein (CD19 extracellular domains fused to human serum albumin) (human, UniProt P15391 20-291)
T2 construct: extracellular domain; also called recombinant CD19 antigen; not shown: human serum albumin
T2 sequence (looked up): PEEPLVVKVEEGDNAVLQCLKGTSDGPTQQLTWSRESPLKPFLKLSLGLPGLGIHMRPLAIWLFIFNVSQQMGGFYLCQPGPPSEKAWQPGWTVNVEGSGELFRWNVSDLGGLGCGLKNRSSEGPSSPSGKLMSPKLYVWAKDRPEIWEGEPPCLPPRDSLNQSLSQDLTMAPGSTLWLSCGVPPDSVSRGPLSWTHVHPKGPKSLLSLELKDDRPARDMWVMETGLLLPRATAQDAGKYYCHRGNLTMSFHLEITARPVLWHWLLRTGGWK

B1: Antibody 6 (antibody, V domains shown)
VH: QVQLVESGGGVVQPGRSLRLSCAASGFTFSSYGMHWVRQAPGKGLEWVALIWYDGSNKYYADSVKGRFTISRDNSKNTLYLQMNSLRAEDTAVYYCAKPVEGLLRGFDYWGQGTLVTVSS
VL: EIVLTQSPGTLSLSPGERATLSCRASQSVRSSYLAWYQQKPGQAPRLLIYGASSRATGIPDRFSGSGSGTDFTLTISRLEPEDFAVYYCQQAGVPPLTFGGGTKVEIK
notes: Human IgG produced in Adimab yeast, purified on Protein A; Has the VH and VL of #6 scFv; also called CD19 Antibody 6
B2: Antibody 1 (antibody, V domains shown)
VH: B1 VH
VL: B1 VL with L4M, R30S, S54N, P95F, L97F
notes: Human IgG produced in Adimab yeast, purified on Protein A; Has the VH and VL of #1 scFv; also called CD19 Antibody 1
B3: Antibody 2 (antibody, V domains shown)
VH: B1 VH
VL: B1 VL with R30S, V94A, P95V, L97I
notes: Human IgG produced in Adimab yeast, purified on Protein A; also called CD19 Antibody 2
B4: Antibody 15 (antibody, V domains shown)
VH: B1 VH
VL: B1 VL with R30S, S54R, V94I, L97Y
notes: Human IgG produced in Adimab yeast, purified on Protein A; Has the VH and VL of #15 scFv; also called CD19 Antibody 15
B5: Antibody 5 (antibody, V domains shown)
VH: B1 VH
VL: EIVLTQSPGTLSLSPGERATLSCRASQSVSSSYLAWYQQKPGQAPRLLIYGASSRATGIPDRFSGSGSGTDFTLTISRLEPEDFAVYYCQQAGGVPPLTFGGGTKVEIK
notes: Human IgG produced in Adimab yeast, purified on Protein A; Has the VH and VL of #5 scFv; also called CD19 Antibody 5
B6: Antibody 4 (antibody, V domains shown)
VH: B1 VH
VL: B5 VL with A92V, G93D, G94S, V95L, P96H, L98F
notes: Human IgG produced in Adimab yeast, purified on Protein A; Has the VH and VL of #4 scFv; also called CD19 Antibody 4
B7: Antibody 7 (antibody, V domains shown)
VH: B1 VH
VL: B5 VL with L4M, L98F
notes: Human IgG produced in Adimab yeast, purified on Protein A; Has the VH and VL of #7 scFv; also called CD19 Antibody 7

How the values were obtained:
[1] = molecular target: T1, CD19 endogenously expressed on Raji and …; assay: flow cytometry, serial dilution on NALM-6 cells
[2] = molecular target: T2, soluble CD19-HSA fusion protein (CD19 …); assay: BLI (ForteBio Octet RED384), IgG on AHC sensors, 100 nM soluble CD19-HSA, 1:1 model

Row | Binder | EC50 [1] [nM] | Kd [2] [nM] | koff [2] [s⁻¹] | kon [2] [M⁻¹ s⁻¹]
1 | B1 | 0.18 | 6.4 | 0.000484 | 75600
2 | B2 | 0.588 | 32.9 | 0.00176 | 53400
3 | B3 | 0.314 | 9.01 | 0.000554 | 61500
4 | B4 | 0.27 | 20.8 | 0.00145 | 69800
5 | B5 | 0.219 | 10.4 | 0.000785 | 75600
6 | B6 | 0.519 | 9.27 | 0.000218 | 23500
7 | B7 | 0.21 | 14.9 | 0.00105 | 70000
